Source: patent publication US10450368

Tests used:
SSA [1] = assay: AtheNA, Ab 6.25 ug/ml
Centromere B [2] = target: Centromere B (UniProt P07199); assay: AtheNA, Ab 6.25 ug/ml
SSB [3] = target: SSB (UniProt P05455); assay: AtheNA, Ab 6.25 ug/ml
Jo-1 [4] = target: Jo-1 (UniProt P12081); assay: AtheNA, Ab 6.25 ug/ml
Scl-70 [5] = target: Scl-70 (UniProt P11387); assay: AtheNA, Ab 6.25 ug/ml
Sm (Smith antigen) [6] = assay: AtheNA, Ab 6.25 ug/ml
RNP (ribonucleoprotein) [7] = assay: AtheNA, Ab 6.25 ug/ml
Histones [8] = assay: AtheNA, Ab 6.25 ug/ml
SSA [9] = assay: AtheNA, Ab 12.5 ug/ml
Centromere B [10] = target: Centromere B (UniProt P07199); assay: AtheNA, Ab 12.5 ug/ml
SSB [11] = target: SSB (UniProt P05455); assay: AtheNA, Ab 12.5 ug/ml
Jo-1 [12] = target: Jo-1 (UniProt P12081); assay: AtheNA, Ab 12.5 ug/ml
Scl-70 [13] = target: Scl-70 (UniProt P11387); assay: AtheNA, Ab 12.5 ug/ml
Sm (Smith antigen) [14] = assay: AtheNA, Ab 12.5 ug/ml
RNP (ribonucleoprotein) [15] = assay: AtheNA, Ab 12.5 ug/ml
Histones [16] = assay: AtheNA, Ab 12.5 ug/ml
[17] = target: HIV-1 CH505 transmitted/founder gp120 Env (HIV-1); assay: competition ELISA, blocking of CH239 binding to CH505 TF gp120
[18] = target: CH505w136.B3D8gp120/293F (HIV-1); assay: direct-binding ELISA
CH505.M7D8gp120/293F = assay: direct-binding ELISA
[19] = target: CH505w136.B20D8gp120 (HIV-1); assay: direct-binding ELISA
[20] = target: CH505w160.C2D8gp120 (HIV-1); assay: direct-binding ELISA
[21] = target: CH505w160.C11D8gp120 (HIV-1); assay: direct-binding ELISA
[22] = target: CH505.TF mutant gp120 M8 (HIV-1); assay: direct-binding ELISA
[23] = target: CH505.TF mutant gp120 M6 (HIV-1); assay: direct-binding ELISA
[24] = target: CH505w136.B4D8gp120 (HIV-1); assay: direct-binding ELISA
CH505.M11D8gp120/293F = assay: direct-binding ELISA
[25] = target: CH505w136.B5D8gp120 (HIV-1); assay: direct-binding ELISA
[26] = target: CH505w136.B8D8gp120 (HIV-1); assay: direct-binding ELISA
[27] = target: CH505w160.T4D8gp120/293F (HIV-1); assay: direct-binding ELISA
[28] = target: CH505w160.D5D8gp120/293F (HIV-1); assay: direct-binding ELISA
CH505.M5D8gp120293F = assay: direct-binding ELISA
CH505.M21D8gp120/293F = assay: direct-binding ELISA
[29] = target: CH505w136.B2D8gp120/293F (HIV-1); assay: direct-binding ELISA
[30] = target: CH505w160.T2D8gp120 (HIV-1); assay: direct-binding ELISA
[31] = target: CH505w136.B18D8gp120 (HIV-1); assay: direct-binding ELISA
[32] = target: CH505_w137V201B12.D11gp120 (HIV-1); assay: direct-binding ELISA
[33] = target: CH505w136.B10D8gp120 (HIV-1); assay: direct-binding ELISA
[34] = target: CH505w160.D1D8gp120 (HIV-1); assay: direct-binding ELISA
CH505.M19D8gp120 = assay: direct-binding ELISA
CH505.M10D8gp120 = assay: direct-binding ELISA
[35] = target: CH505_w137V209C12.D11gp120 (HIV-1); assay: direct-binding ELISA
CH505.M9D8gp120/293F = assay: direct-binding ELISA
[36] = target: CH505w136.B36D8gp120 (HIV-1); assay: direct-binding ELISA
[37] = target: CH505w160.A1D8gp120 (HIV-1); assay: direct-binding ELISA
[38] = target: CH505w160.C12D8gp120 (HIV-1); assay: direct-binding ELISA
[39] = target: CH505w160.C14D8gp120 (HIV-1); assay: direct-binding ELISA
[40] = target: CH505w136.B29D8gp120 (HIV-1); assay: direct-binding ELISA
[41] = target: CH505w136.B27D8gp120 (HIV-1); assay: direct-binding ELISA
[42] = target: CH505.TF mutant gp120 M20 (HIV-1); assay: direct-binding ELISA

Sequence of SSB (P05455 whole entry): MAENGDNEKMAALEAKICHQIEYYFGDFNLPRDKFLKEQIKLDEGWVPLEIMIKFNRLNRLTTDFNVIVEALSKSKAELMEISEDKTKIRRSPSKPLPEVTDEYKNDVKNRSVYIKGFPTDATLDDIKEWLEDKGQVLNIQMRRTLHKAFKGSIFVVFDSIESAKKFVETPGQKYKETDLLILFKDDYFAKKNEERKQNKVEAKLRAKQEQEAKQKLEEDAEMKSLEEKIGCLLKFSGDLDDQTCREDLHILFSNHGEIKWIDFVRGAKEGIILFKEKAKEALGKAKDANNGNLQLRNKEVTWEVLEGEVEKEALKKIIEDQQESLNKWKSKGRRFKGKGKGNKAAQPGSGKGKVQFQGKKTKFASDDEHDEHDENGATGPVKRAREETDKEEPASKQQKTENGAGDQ
Sequence of Jo-1 (P12081 whole entry): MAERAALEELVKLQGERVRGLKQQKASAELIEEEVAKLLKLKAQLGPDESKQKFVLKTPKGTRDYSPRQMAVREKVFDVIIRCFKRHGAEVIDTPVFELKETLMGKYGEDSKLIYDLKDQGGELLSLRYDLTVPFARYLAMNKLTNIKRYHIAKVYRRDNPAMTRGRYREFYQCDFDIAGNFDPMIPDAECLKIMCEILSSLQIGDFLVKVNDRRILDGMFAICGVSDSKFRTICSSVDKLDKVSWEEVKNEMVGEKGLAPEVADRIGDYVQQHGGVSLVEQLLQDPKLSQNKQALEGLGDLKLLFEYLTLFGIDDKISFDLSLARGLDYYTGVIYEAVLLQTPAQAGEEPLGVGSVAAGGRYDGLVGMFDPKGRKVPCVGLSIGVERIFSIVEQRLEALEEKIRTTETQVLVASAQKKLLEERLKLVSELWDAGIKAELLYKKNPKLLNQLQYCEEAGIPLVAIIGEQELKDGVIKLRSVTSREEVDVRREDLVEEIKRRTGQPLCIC
Sequence of Centromere B (P07199 whole entry): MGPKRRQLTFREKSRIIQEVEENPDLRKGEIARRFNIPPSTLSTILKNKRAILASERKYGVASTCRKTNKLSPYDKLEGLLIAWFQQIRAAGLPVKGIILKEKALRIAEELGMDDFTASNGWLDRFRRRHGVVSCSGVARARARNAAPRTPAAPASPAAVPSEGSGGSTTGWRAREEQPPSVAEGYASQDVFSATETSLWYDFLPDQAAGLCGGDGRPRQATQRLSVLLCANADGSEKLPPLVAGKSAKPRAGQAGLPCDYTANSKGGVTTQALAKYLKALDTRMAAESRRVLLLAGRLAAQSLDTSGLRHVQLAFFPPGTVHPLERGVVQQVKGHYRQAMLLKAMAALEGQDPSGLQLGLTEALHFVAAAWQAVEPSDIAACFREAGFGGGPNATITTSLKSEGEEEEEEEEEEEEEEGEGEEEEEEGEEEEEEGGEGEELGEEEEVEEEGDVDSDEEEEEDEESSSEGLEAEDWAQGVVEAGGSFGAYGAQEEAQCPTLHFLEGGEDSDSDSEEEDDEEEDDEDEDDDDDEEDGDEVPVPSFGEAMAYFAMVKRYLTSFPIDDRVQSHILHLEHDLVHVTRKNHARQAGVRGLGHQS
Sequence of Scl-70 (P11387 whole entry): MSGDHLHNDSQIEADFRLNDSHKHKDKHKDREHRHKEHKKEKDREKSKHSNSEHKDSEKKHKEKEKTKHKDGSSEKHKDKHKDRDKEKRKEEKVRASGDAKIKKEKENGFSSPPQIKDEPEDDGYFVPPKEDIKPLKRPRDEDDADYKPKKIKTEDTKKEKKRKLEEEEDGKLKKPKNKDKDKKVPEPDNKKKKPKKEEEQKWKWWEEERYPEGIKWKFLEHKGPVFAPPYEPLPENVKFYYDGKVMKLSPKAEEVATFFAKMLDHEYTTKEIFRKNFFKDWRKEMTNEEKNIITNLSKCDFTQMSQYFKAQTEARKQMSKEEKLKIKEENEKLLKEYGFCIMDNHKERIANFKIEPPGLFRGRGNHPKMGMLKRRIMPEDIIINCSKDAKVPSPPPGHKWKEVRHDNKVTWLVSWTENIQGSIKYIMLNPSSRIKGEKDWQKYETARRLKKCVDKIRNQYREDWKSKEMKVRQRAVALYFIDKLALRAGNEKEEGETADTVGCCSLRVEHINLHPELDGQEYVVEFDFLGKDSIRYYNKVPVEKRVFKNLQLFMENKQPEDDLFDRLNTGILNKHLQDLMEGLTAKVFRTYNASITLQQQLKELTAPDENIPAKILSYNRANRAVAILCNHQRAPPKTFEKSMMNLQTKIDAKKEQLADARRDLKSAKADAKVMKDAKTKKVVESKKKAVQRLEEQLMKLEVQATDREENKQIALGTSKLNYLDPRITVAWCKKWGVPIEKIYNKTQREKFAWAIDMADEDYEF

Substance: CH106 (antibody)
- AtheNA signal (relative luminescence units) (SSA [1]): 10
- AtheNA signal (relative luminescence units) (Centromere B [2]): 1
- AtheNA signal (relative luminescence units) (SSB [3]): 6
- AtheNA signal (relative luminescence units) (Jo-1 [4]): 4
- AtheNA signal (relative luminescence units) (Scl-70 [5]): 2
- AtheNA signal (relative luminescence units) (Sm (Smith antigen) [6]): 5
- AtheNA signal (relative luminescence units) (RNP (ribonucleoprotein) [7]): 1
- AtheNA signal (relative luminescence units) (Histones [8]): 2
- AtheNA signal (relative luminescence units) (SSA [9]): 11
- AtheNA signal (relative luminescence units) (Centromere B [10]): 2
- AtheNA signal (relative luminescence units) (SSB [11]): 5
- AtheNA signal (relative luminescence units) (Jo-1 [12]): 3
- AtheNA signal (relative luminescence units) (Scl-70 [13]): 3
- AtheNA signal (relative luminescence units) (Sm (Smith antigen) [14]): 4
- AtheNA signal (relative luminescence units) (RNP (ribonucleoprotein) [15]): 2
- AtheNA signal (relative luminescence units) (Histones [16]): 2
- IC50 [17]: 4.6 µg/mL
- LogAUC [18]: 12.6
- LogAUC (CH505.M7D8gp120/293F): 11
- LogAUC [19]: 12.1
- LogAUC [20]: 9.29
- LogAUC [21]: 8.15
- LogAUC [22]: 10.2
- LogAUC [23]: 12.6
- LogAUC [24]: 11.8
- LogAUC (CH505.M11D8gp120/293F): 12.8
- LogAUC [25]: 10.9
- LogAUC [26]: 11.7
- LogAUC [27]: 12.3
- LogAUC [28]: 5.64
- LogAUC (CH505.M5D8gp120293F): 8.37
- LogAUC (CH505.M21D8gp120/293F): 11.5
- LogAUC [29]: 12.7
- LogAUC [30]: 6.16
- LogAUC [31]: 13.3
- LogAUC [32]: 12.5
- LogAUC [33]: 8.97
- LogAUC [34]: 7.06
- LogAUC (CH505.M19D8gp120): 12.2
- LogAUC (CH505.M10D8gp120): 11.8
- LogAUC [35]: 12.2
- LogAUC (CH505.M9D8gp120/293F): 11
- LogAUC [36]: 13.1
- LogAUC [37]: 7.6
- LogAUC [38]: 12.2
- LogAUC [39]: 6.94
- LogAUC [40]: 12
- LogAUC [41]: 11.2
- LogAUC [42]: 10.7
